Reference: publication PMC10175819

Tests used:
[1] = molecular target: GROWTH-REGULATING FACTOR 4 (GRF4), yeast hybrid fusion (wheat); assay: yeast three-hybrid; quantitative alpha-gal Y3H assay; BD and AD fusions with a third protein expressed or not expressed; n = 12
[2] = molecular target: RHT1-GRAS (truncated DELLA protein carrying only the C-terminal GRAS domain), yeast hybrid fusion (wheat); assay: as above

Row | fold stronger interaction than between PLATZ and DELLA [1] | percent reduction of the PLATZ1-DELLA interaction with GRF4 as the third protein [2] | Substance
1 | > 20 fold | – | RHT1-GRAS (truncated DELLA protein carrying only the C-terminal GRAS domain), yeast hybrid fusion (domain or fragment)
2 | – | 74% | GROWTH-REGULATING FACTOR 4 (GRF4), yeast hybrid fusion (natural protein)
